Data taken from doi:10.1101/2024.11.15.623645 (bioRxiv, 2024).

B1: 2G12 soluble IgG mAb (antibody, V domains shown)
VH: EVQLVESGGGLVKAGGSLILSCGVSNFRISAHTMNWVRRVPGGGLEWVASISTSSTYRDYADAVKGRFTVSRDDLEDFVYLQMHKMRVEDTAIYYCARKGSDRLSDNDPFDAWGPGTVVTVSP
VL: DVVMTQSPSTLSASVGDTITITCRASQSIETWLAWYQQKPGKAPKLLIYKASTLKTGVPSRFSGSGSGTEFTLTISGLQFDDFATYHCQHYAGYSATFGQGTRVEIK

Assays:
Assay in all cases: SPR
[1] = target: 2G12 IgG BCR complex (membrane IgG with Igα/Igβ) (human | human (endogenous in Ramos)) (UniProt P11912)
[2] = target: 2G12 IgM BCR complex (membrane IgM with Igα/Igβ) (human | human (endogenous in Ramos)) (UniProt P11912)
[3] = target: HIV-1 Env gp140 trimer CH505TF v4.1 (non-biotinylated) (HIV-1 clade C, CH505 transmitted/founder, UniProt M4M3Q1, stabilised)

Molecule | kon [1] [M⁻¹ s⁻¹] | kon [2] [M⁻¹ s⁻¹] | binding result [3]
HIV-1 Env gp140 trimer BG505 GT1.2 (non-biotinylated) | > 100000 | > 100000 | 
HIV-1 Env gp140 trimer CAP256 (non-biotinylated) | > 100000 | > 100000 | 
HIV-1 Env gp140 trimer CH848 (non-biotinylated) | > 100000 | > 100000 | 
HIV-1 Env gp140 trimer JRFL (non-biotinylated) | > 100000 | > 100000 | 
HIV-1 Env gp140 trimer CH505TF v4.1 (non-biotinylated) | > 100000 | > 100000 | 
B1 |  |  | binds
